# Literature values as cited in paper PMC12818570.
# Molecular target: His57 (UniProt position 57, ILPVTHTEISP)
# Assay: electrophysiology (solid-supported membrane electrophysiology, SSME, on isolated lysosomes)
# Conditions: 90 mM NaCl + 50 mM NaCl or KCl, 5 mM MgCl2; 30 mM HEPES, 30 mM MES, titrated with HCl or NaOH; channel in lysosomal membrane, pH equilibrated symmetrically on both sides, no applied voltage
substance,measurement,value
"Transmembrane protein 175 (TMEM175), endosomal/lysosomal cation channel (Homo sapiens)",pKa,7.0 ± 0.1
